Laboratory results from IntAct's records for PubMed 11923305.

Tests used:
src_human SRC [1] = target: src_human SRC (UniProt P12931)
src_chick SRC [2] = target: src_chick SRC (UniProt P00523)
src_human SRC [3] = target: src_human SRC (UniProt P12931); remark: listed apart in the source
src_chick SRC [4] = target: src_chick SRC (UniProt P00523); remark: listed apart in the source

Substance: Receptor-type tyrosine-protein phosphatase alpha (Homo sapiens) (from UniProt P18433) S189A
- effect of a mutation on the interaction (src_human SRC [1]): disrupting interaction
- effect of a mutation on the interaction (src_chick SRC [2]): disrupting interaction

Substance: Receptor-type tyrosine-protein phosphatase alpha (Homo sapiens) (from UniProt P18433) S204A
- effect of a mutation on the interaction (src_human SRC [3]): disrupting interaction
- effect of a mutation on the interaction (src_chick SRC [4]): disrupting interaction
